# Data: publication PMC10178127, “Immunomodulatory Effects of the Pea Defensin Psd1 in the Caco-2/Immune Cells Co-Culture upon Candida albicans Infection” (International Journal of Molecular Sciences, 2023)
# What was measured:
# C. albicans v47a3 = test: Yeast growth in Caco-2/C. albicans co-culture, microscopy; format: cell-based, Candida albicans; conditions: 2 μM Psd1, 4 and 24 h
# Experimental: Candida albicans cells in stock were inoculated onto modified YPD (yeast extract 5 g/L, peptone 10 g/L, glucose 10 g/L) agar plates, and incubated for 24 h at 37 °C. After replating, cells were cultured in complete RPMI-1640 (Capricorn Scientific) without antibiotics at 37 °C to optical density 1.0 at 540 nm, centrifuged, and diluted up to the concentration of 5 × 10^4 cells/mL in fresh RPMI-1640 without FBS and antibiotics. In the case of studying combined action on the epithelium of yeast cells and the pea Psd1 recombinant peptide was dissolved in water at the concentration of 200 μM and was added to yeast cell suspension up to the final concentration of 2 μM. Yeast growth and morphology in the presence or absence of peptide under co-cultivation with Caco-2 cells in a 24-well plate were estimated using an inverted microscope, Olympus CKX41 (Olympus, Tokyo, Japan).
# Candida albicans enzymes = conditions: cited from earlier work
substance,measurement,setting,value
"Psd1: pea defensin from Pisum sativum (UNIPROT P81929), recombinant peptide overexpressed in Escherichia coli (KTCEHLADTYRGVCFTNASCDDHCKNKAHLISGTCHNWKCFCTQNC; UniProt P81929 1-46, looked up)",growth of C. albicans in Caco-2/C. albicans co-culture,C. albicans v47a3,did not inhibit the growth of C. albicans
same,stability to proteolysis by Candida albicans enzymes,Candida albicans enzymes,stable to proteolysis by Candida albicans enzymes
